PMC3963902 (PLoS ONE, 2014)

What was measured:
[1] = molecular target: the molecule itself; test: crystal structure; His-tagged Se-Met labelled LpEst1; 1 M sodium malonate, 0.5% (v/v) Jeffamine ED-2001, 100 mM HEPES pH 7.0, 5 mM DTT; space group I4, four molecules in the asymmetric unit; 2.05 A
[2] = molecular target: the molecule itself; test: AUC; sedimentation equilibrium at 12,000 and 18,000 rpm; Gln189Glu mutant 10 uM in McIlvaine buffer pH 5.0 (Na2PO4, citric acid); fit to an ideal single species
[3] = molecular target: the molecule itself; test: SEC; analytical gel filtration on Superdex 200 10/300 GL Tricorn; 20 mM Tris-HCl pH 8.0, 0.1 M NaCl, 5 mM DTT, 0.04% sodium azide; size from Kav against standards

B1: His-tagged, selenomethionine (Se-Met) labelled LpEst1 (enzyme, Lactobacillus plantarum WCFS1, UniProt Q88Y25 1-337, looked up)
chain: MPTINSIQTTVNGVVKIVKPFNNDIAGEQFDPHVLQTLTAFKQPAILENDLAALRSGSLTPAIADPVGDAVTVQSRNITALNRTVSVEWLTPQNVINHTVLVYFHGGAFYGGVPGNNTVLLKLVAAKSHCEILNVDYSLAPEAPAPAGILDGLAIFQYLEQRDAETMITVAGDSAGANVIMAATNLNQQLGSNRINQQLLLYPVTAPNADHAGPLWDLAAFPIIDSQRAILTNYHDLFRQLDSIMTDYYVPENFDSHSPLISPLHQENFTMTPPTTIMVGEFDPFRPQAWAYAQRLAAADTATTFIQYQGLNHAFAPLVDQYWQSQDVAQVMAAALI
modifications: selenomethionine (Se-Met labelled)
notes: carboxylesterase LpEst1, Lactobacillus plantarum WCFS1, UniProtKB/Swiss-Prot Q88Y25; 337 residues; Methionines replaced by selenomethionine; incorporation checked by mass spectrometry; also called Se-Met LpEst1; Se-Met labelled LpEst1 esterase
B1: binds [1].

B2: LpEst1 Gln189Glu mutant (enzyme, Lactobacillus plantarum WCFS1, UniProt Q88Y25 1-337, looked up)
chain: MPTINSIQTTVNGVVKIVKPFNNDIAGEQFDPHVLQTLTAFKQPAILENDLAALRSGSLTPAIADPVGDAVTVQSRNITALNRTVSVEWLTPQNVINHTVLVYFHGGAFYGGVPGNNTVLLKLVAAKSHCEILNVDYSLAPEAPAPAGILDGLAIFQYLEQRDAETMITVAGDSAGANVIMAATNLNQELGSNRINQQLLLYPVTAPNADHAGPLWDLAAFPIIDSQRAILTNYHDLFRQLDSIMTDYYVPENFDSHSPLISPLHQENFTMTPPTTIMVGEFDPFRPQAWAYAQRLAAADTATTFIQYQGLNHAFAPLVDQYWQSQDVAQVMAAALI
notes: carboxylesterase LpEst1, Lactobacillus plantarum WCFS1, UniProtKB/Swiss-Prot Q88Y25; 337 residues; single point mutant Gln189Glu; Made from the wild-type vector with the mutagenic primers printed in the methods; source: recombinant, point mutant of pURI3-TEV-LpEst1; purified (IMAC on a His-Trap FF column plus size exclusion chromatography, last step in McIlvaine buffer pH 5.0)
For B2, the “stoichiometry N” value [2] was 2.

B3: carboxylesterase LpEst1 from Lactobacillus plantarum WCFS1 (wild type, native) (enzyme, UniProt Q88Y25 1-337, looked up)
chain: MPTINSIQTTVNGVVKIVKPFNNDIAGEQFDPHVLQTLTAFKQPAILENDLAALRSGSLTPAIADPVGDAVTVQSRNITALNRTVSVEWLTPQNVINHTVLVYFHGGAFYGGVPGNNTVLLKLVAAKSHCEILNVDYSLAPEAPAPAGILDGLAIFQYLEQRDAETMITVAGDSAGANVIMAATNLNQQLGSNRINQQLLLYPVTAPNADHAGPLWDLAAFPIIDSQRAILTNYHDLFRQLDSIMTDYYVPENFDSHSPLISPLHQENFTMTPPTTIMVGEFDPFRPQAWAYAQRLAAADTATTFIQYQGLNHAFAPLVDQYWQSQDVAQVMAAALI
notes: carboxylesterase LpEst1, Lactobacillus plantarum WCFS1, UniProtKB/Swiss-Prot Q88Y25; 337 residues, about 36.7 kDa; complete protein molecules in the crystal model; The crystals were of His-tagged protein; also called native LpEst1; wild-type protein; source: recombinant, from the expression vector pURI3-TEV-LpEst1
For B3, the “stoichiometry N” value [3] was 2.
